Results on 6 substances are retold here after the supplement of paper PMC5998384.

The subject of data set [1] is HeLa Kyoto. The experiment in a line: thermal stability score vs G1/S (z-score of summed log2 fold changes over temperatures); higher = more thermally stable than in G1/S.
In data set [2] the test system is HeLa Kyoto. The experiment in a line: solubility in G1/S (NP-40 vs SDS abundance) (log2 ratio); higher = more soluble. The conditions noted are these: cell cycle stage: G1/S.
In data set [3] the test system is HeLa Kyoto. The experiment in a line: solubility change mitosis vs G1/S (difference of NP-40 vs SDS log2 ratios) (log2 ratio difference); higher = more soluble in mitosis.
Data set [4] has as its system HeLa Kyoto. The experiment in a line: melting temperature (median over replicates), in situ; higher = more thermally stable.
The mark [5] stands for this setting: cell cycle stage: early G1 (4.5 h after nocodazole release).
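Throughout, for melting temperature (median over replicates), in situ: HeLa Kyoto cells synchronized by double thymidine or nocodazole block, proteins quantified by TMT10plex mass spectrometry, three independent biological replicates.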
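Throughout, for solubility change mitosis vs G1/S (difference of NP-40 vs SDS log2 ratios): synchronized HeLa Kyoto cells (double thymidine block for G1/S, nocodazole release for mitosis), protein amounts in NP-40 versus SDS lysates quantified by mass spectrometry, three biological replicates.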
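Throughout, for solubility in G1/S (NP-40 vs SDS abundance): HeLa Kyoto cells arrested at G1/S by double thymidine block, proteins quantified by TMT10plex mass spectrometry in mild NP-40 versus SDS extracts, three biological replicates.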
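Throughout, for thermal stability score vs G1/S (z-score of summed log2 fold changes over temperatures): synchronized HeLa Kyoto cells, proteins quantified by TMT10plex mass spectrometry, three biological replicates, mitosis taken 0.5 h after nocodazole release, G1/S directly after double thymidine block.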

UBE2Q1, sequence (chain, as listed by the source): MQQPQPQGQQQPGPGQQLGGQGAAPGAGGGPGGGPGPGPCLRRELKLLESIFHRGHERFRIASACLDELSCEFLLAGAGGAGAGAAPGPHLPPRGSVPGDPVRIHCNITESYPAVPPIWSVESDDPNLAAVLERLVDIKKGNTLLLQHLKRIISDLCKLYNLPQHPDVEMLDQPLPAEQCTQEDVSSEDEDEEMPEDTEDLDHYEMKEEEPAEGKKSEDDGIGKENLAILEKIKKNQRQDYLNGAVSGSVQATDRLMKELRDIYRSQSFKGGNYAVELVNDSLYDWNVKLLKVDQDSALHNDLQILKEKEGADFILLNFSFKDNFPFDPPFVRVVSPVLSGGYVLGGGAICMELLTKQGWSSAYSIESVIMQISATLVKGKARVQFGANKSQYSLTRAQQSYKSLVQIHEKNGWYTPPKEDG

With “MVHCSCVLFRKYGNFIDKLRLFTRGGSGGMGYPRLGGEGGKGGDVWVVAQNRMTLKQLKDRYPRKRFVAGVGANSKISALKGSKGKDCEIPVPVGISVTDENGKIIGELNKENDRILVAQGGLGGKLLTNFLPLKGQKRIIHLDLKLIADVGLVGFPNAGKSSLLSCVSHAKPAIADYAFTTLKPELGKIMYSDFKQISVADLPGLIEGAHMNKGMGHKFLKHIERTRQLLFVVDISGFQLSSHTQYRTAFETIILLTKELELYKEELQTKPALLAVNKMDLPDAQDKFHELMSQLQNPKDFLHLFEKNMIPERTVEFQHIIPISAVTGEGIEELKNCIRKSLDEQANQENDALHKKQLLNLWISDTMSSTEPPSKHAVTTSKMDII [GTPBP10]”, the thermal stability score was -0.944 in data set [1] (setting [5]) and 0.176 in data set [1] (cell cycle stage: mitosis). Further, the “solubility in G1/S (log2)” value in data set [2] was 0.217. The “solubility change mitosis (log2)” value in data set [3] worked out at 0.0276. The melting temperature in data set [4] (cell cycle stage: G1/S) amounted to 49.4 °C; in data set [4] (cell cycle stage: mitosis), 50.8 °C.
Consider UBR1, for which the thermal stability score in data set [1] (setting [5]) came to 0.878; in data set [1] (cell cycle stage: mitosis), 1.16. Moreover, the “solubility in G1/S (log2)” value in data set [2] was -0.252. Moreover, the “solubility change mitosis (log2)” value in data set [3] is -0.26. The melting temperature in data set [4] (cell cycle stage: G1/S) is 48.6 °C; in data set [4] (cell cycle stage: mitosis) it was 50.3 °C.
For “MAAHRPGPLKQQNKAHKGGRHRGRGSAQRDGKGRLALKTLSKKVRKELSRVDQRHRASQLRKQKKEAVLAEKRQLGGKDGPPHQVLVVPLHSRISLPEAMQLLQDRDTGTVHLNELGNTQNFMLLCPRLKHRWFFTSARPGDLHVVLDMAKVADTILFLLDPLEGWDSTGDYCLSCLFAQGLPTYTLAVQGISGLPLKKQIDTRKKLSKAVEKRFPHDKLLLLDTQQEAGMLLRQLANQKQQHLAFRDRRAYLFAHAVDFVPSEENNLVGTLKISGYVRGQTLNVNRLLHIVGYGDFQMKQIDAPGDPFPLNPRGIKPQKDPDMAMEICATDAVDDMEEGLKVLMKADPGRQESLQAEVIPDPMEGEQTWPTEEELSEAKDFLKESSKVVKKVPKGTSSYQAEWILDGGSQSGGEGDEYEYDDMEHEDFMEEESQDESSEEEEEYETMTIGESVHDDLYDKKVDEEAEAKMLEKYKQERLEEMFPDEVDTPRDVAARIRFQKYRGLKSFRTSPWDPKENLPQDYARIFQFQNFTNTRKSIFKEVEEKEVEGAEVGWYVTLHVSEVPVSVVECFRQGTPLIAFSLLPHEQKMSVLNMVVRRDPGNTEPVKAKEELIFHCGFRRFRASPLFSQHTAADKHKLQRFLTADMALVATVYAPITFPPASVLLFKQKSNGMHSLIATGHLMSVDPDRMVIKRVVLSGHPFKIFTKMAVVRYMFFNREDVLWFKPVELRTKWGRRGHIKEPLGTHGHMKCSFDGKLKSQDTVLMNLYKRVFPKWTYDPYVPEPVPWLKSEISSTVPQGGME [TSR1]”, the thermal stability score amounted to 0.699 in data set [1] (setting [5]) and 5.63 in data set [1] (cell cycle stage: mitosis). Further, the “solubility in G1/S (log2)” value in data set [2] is -0.634. For the same substance, the “solubility change mitosis (log2)” value in data set [3] amounted to 0.0446. The melting temperature was determined as 48.3 °C in data set [4] (cell cycle stage: G1/S) and 50.6 °C in data set [4] (cell cycle stage: mitosis).
Take UBE2Q1: the thermal stability score in data set [1] (setting [5]) amounted to 0.426; in data set [1] (cell cycle stage: mitosis), 0.875. For the same substance, the “solubility in G1/S (log2)” value in data set [2] amounted to 0.255. The “solubility change mitosis (log2)” value in data set [3] is -0.042. In addition, the melting temperature in data set [4] (cell cycle stage: G1/S) was 50 °C; in data set [4] (cell cycle stage: mitosis), 50.3 °C.
As for “MQGPPLLTAAHLLCVCTAALAVAPGPRFLVTAPGIIRPGGNVTIGVELLEHCPSQVTVKAELLKTASNLTVSVLEAEGVFEKGSFKTLTLPSLPLNSADEIYELRVTGRTQDEILFSNSTRLSFETKRISVFIQTDKALYKPKQEVKFRIVTLFSDFKPYKTSLNILIKDPKSNLIQQWLSQQSDLGVISKTFQLSSHPILGDWSIQVQVNDQTYYQSFQVSEYVLPKFEVTLQTPLYCSMNSKHLNGTITAKYTYGKPVKGDVTLTFLPLSFWGKKKNITKTFKINGSANFSFNDEEMKNVMDSSNGLSEYLDLSSPGPVEILTTVTESVTGISRNVSTNVFFKQHDYIIEFFDYTTVLKPSLNFTATVKVTRADGNQLTLEERRNNVVITVTQRNYTEYWSGSNSGNQKMEAVQKINYTVPQSGTFKIEFPILEDSSELQLKAYFLGSKSSMAVHSLFKSPSKTYIQLKTRDENIKVGSPFELVVSGNKRLKELSYMVVSRGQLVAVGKQNSTMFSLTPENSWTPKACVIVYYIEDDGEIISDVLKIPVQLVFKNKIKLYWSKVKAEPSEKVSLRISVTQPDSIVGIVAVDKSVNLMNASNDITMENVVHELELYNTGYYLGMFMNSFAVFQECGLWVLTDANLTKDYIDGVYDNAEYAERFMEENEGHIVDIHDFSLGSSPHVRKHFPETWIWLDTNMGYRIYQEFEVTVPDSITSWVATGFVISEDLGLGLTTTPVELQAFQPFFIFLNLPYSVIRGEEFALEITIFNYLKDATEVKVIIEKSDKFDILMTSNEINATGHQQTLLVPSEDGATVLFPIRPTHLGEIPITVTALSPTASDAVTQMILVKAEGIEKSYSQSILLDLTDNRLQSTLKTLSFSFPPNTVTGSERVQITAIGDVLGPSINGLASLIRMPYGCGEQNMINFAPNIYILDYLTKKKQLTDNLKEKALSFMRQGYQRELLYQREDGSFSAFGNYDPSGSTWLSAFVLRCFLEADPYIDIDQNVLHRTYTWLKGHQKSNGEFWDPGRVIHSELQGGNKSPVTLTAYIVTSLLGYRKYQPNIDVQESIHFLESEFSRGISDNYTLALITYALSSVGSPKAKEALNMLTWRAEQEGGMQFWVSSESKLSDSWQPRSLDIEVAAYALLSHFLQFQTSEGIPIMRWLSRQRNSLGGFASTQDTTVALKALSEFAALMNTERTNIQVTVTGPSSPSPVKFLIDTHNRLLLQTAELAVVQPTAVNISANGFGFAICQLNVVYNVKASGSSRRRRSIQNQEAFDLDVAVKENKDDLNHVDLNVCTSFSGPGRSGMALMEVNLLSGFMVPSEAISLSETVKKVEYDHGKLNLYLDSVNETQFCVNIPAVRNFKVSNTQDASVSIVDYYEPRRQAVRSYNSEVKLSSCDLCSDVQGCRPCEDGASGSHHHSSVIFIFCFKLLYFMELWL [CD109]”, the thermal stability score in data set [1] (setting [5]) is -0.942; in data set [1] (cell cycle stage: mitosis) it was 1.58. Moreover, the “solubility in G1/S (log2)” value in data set [2] is -0.179. In addition, in data set [3], the “solubility change mitosis (log2)” value is -0.257. In addition, the melting temperature in data set [4] (cell cycle stage: G1/S) worked out at 57.6 °C; in data set [4] (cell cycle stage: mitosis) it was 63.2 °C.
On to “MKLKLNVLTIILLPVHLLITIYSALIFIPWYFLTNAKKKNAMAKRIKAKPTSDKPGSPYRSVTHFDSLAVIDIPGADTLDKLFDHAVSKFGKKDSLGTREILSEENEMQPNGKVFKKLILGNYKWMNYLEVNRRVNNFGSGLTALGLKPKNTIAIFCETRAEWMIAAQTCFKYNFPLVTLYATLGKEAVVHGLNESEASYLITSVELLESKLKTALLDISCVKHIIYVDNKAINKAEYPEGFEIHSMQSVEELGSNPENLGIPPSRPTPSDMAIVMYTSGSTGRPKGVMMHHSNLIAGMTGQCERIPGLGPKDTYIGYLPLAHVLELTAEISCFTYGCRIGYSSPLTLSDQSSKIKKGSKGDCTVLKPTLMAAVPEIMDRIYKNVMSKVQEMNYIQKTLFKIGYDYKLEQIKKGYDAPLCNLLLFKKVKALLGGNVRMMLSGGAPLSPQTHRFMNVCFCCPIGQGYGLTESCGAGTVTEVTDYTTGRVGAPLICCEIKLKDWQEGGYTINDKPNPRGEIVIGGQNISMGYFKNEEKTAEDYSVDENGQRWFCTGDIGEFHPDGCLQIIDRKKDLVKLQAGEYVSLGKVEAALKNCPLIDNICAFAKSDQSYVISFVVPNQKRLTLLAQQKGVEGTWVDICNNPAMEAEILKEIREAANAMKLERFEIPIKVRLSPEPWTPETGLVTDAFKLKRKELRNHYLKDIERMYGGK [ACSL4]”, for which the thermal stability score was 1.35 in data set [1] (setting [5]) and 2.2 in data set [1] (cell cycle stage: mitosis). In addition, in data set [2], the “solubility in G1/S (log2)” value was -0.0428. Moreover, the “solubility change mitosis (log2)” value in data set [3] was -0.157. Besides, the results for the melting temperature in data set [4] (cell cycle stage: G1/S) and in data set [4] (cell cycle stage: mitosis) were 48.8 °C and 48.7 °C, respectively.
